In paper doi:10.1101/208041:
Like-named read-outs stand apart in the source and are kept apart here.

Experiments:
Experiment in all cases: filter binding
MpAgo WT [1] = target: T1, MpAgo WT (Marinitoga piezophila, UniProt H2J4R4 1-639); details: biotinylated
T1 sequence: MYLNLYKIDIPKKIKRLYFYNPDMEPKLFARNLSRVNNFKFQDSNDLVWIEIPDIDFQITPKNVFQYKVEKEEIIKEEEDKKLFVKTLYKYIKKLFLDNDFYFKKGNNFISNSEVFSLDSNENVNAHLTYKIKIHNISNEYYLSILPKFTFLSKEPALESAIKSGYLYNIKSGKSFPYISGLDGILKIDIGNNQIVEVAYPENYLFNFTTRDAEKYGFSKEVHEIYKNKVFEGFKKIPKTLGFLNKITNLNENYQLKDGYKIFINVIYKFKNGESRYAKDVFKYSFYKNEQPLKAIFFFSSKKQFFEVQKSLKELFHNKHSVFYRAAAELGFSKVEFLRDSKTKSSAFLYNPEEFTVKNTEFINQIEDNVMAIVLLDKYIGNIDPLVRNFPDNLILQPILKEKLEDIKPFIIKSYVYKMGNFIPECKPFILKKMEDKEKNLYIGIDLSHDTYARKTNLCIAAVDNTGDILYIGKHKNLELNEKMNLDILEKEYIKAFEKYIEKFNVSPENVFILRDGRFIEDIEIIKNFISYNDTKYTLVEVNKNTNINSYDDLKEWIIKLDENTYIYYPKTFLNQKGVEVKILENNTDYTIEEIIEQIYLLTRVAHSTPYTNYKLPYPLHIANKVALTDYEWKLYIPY

MpAgo WT [2] = target: T1, MpAgo WT
MpAgo WT [3] = target: T1, MpAgo WT; remark: listed apart in the source
[4] = target: T2, dMpAgo (catalytically inactive MpAgo) (Marinitoga piezophila, UniProt H2J4R4 1-639, D446A)
T2 sequence: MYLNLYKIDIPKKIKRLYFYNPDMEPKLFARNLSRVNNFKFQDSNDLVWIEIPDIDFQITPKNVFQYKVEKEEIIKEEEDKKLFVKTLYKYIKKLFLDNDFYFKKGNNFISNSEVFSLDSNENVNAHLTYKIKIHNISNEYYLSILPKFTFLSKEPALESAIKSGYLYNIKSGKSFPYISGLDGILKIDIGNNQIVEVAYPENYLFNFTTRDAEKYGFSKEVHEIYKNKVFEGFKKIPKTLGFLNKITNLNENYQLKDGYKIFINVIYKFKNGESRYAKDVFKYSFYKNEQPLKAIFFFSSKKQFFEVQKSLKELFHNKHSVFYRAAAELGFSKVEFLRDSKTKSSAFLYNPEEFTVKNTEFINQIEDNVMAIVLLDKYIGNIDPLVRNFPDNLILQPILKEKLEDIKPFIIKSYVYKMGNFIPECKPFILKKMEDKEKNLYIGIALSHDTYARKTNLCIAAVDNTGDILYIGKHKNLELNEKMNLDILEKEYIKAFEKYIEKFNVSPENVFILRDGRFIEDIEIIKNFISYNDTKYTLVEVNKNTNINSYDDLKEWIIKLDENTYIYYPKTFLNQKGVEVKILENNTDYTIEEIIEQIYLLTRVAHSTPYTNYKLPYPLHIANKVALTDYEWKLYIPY

[5] = target: T2, dMpAgo (catalytically inactive MpAgo); remark: listed apart in the source
[6] = target: T2, dMpAgo (catalytically inactive MpAgo); remark: listed apart in the source
[7] = target: T2, dMpAgo (catalytically inactive MpAgo); remark: listed apart in the source
[8] = target: T2, dMpAgo (catalytically inactive MpAgo); remark: listed apart in the source
[9] = target: T2, dMpAgo (catalytically inactive MpAgo); remark: listed apart in the source
[10] = target: T2, dMpAgo (catalytically inactive MpAgo); remark: listed apart in the source
[11] = target: T2, dMpAgo (catalytically inactive MpAgo); remark: listed apart in the source
[12] = target: T2, dMpAgo (catalytically inactive MpAgo); remark: listed apart in the source
[13] = target: T2, dMpAgo (catalytically inactive MpAgo); remark: listed apart in the source
[14] = target: T2, dMpAgo (catalytically inactive MpAgo); remark: listed apart in the source
[15] = target: T2, dMpAgo (catalytically inactive MpAgo); remark: listed apart in the source

## 33-nt gRNA
MpAgo WT [1]
  Kd: 35 nM

## GAUACAACCUACUACCUCAUU (ssRNA, 5'-OH) [gRNA 5'-rG]
MpAgo WT [2]
  Kd: 52 ± 4 nM
MpAgo WT [3]
  Kd: 49 ± 5 nM

B1: BrdU guide / ON target (mixed)
RNA 1: UAUACAACCUACUACCUCAUU
RNA 2: GGACUAUGAUCUAGAUAUUAAUGAGGUAGUAGGUUGUAUCUCAGGAGGUC
modifications: BrdU at guide 1
[4]
  Kd: 0.175 ± 0.023 nM
[5]
  Kd: 0.5 ± 0.115 nM
[6]
  Kd: 0.193 ± 0.02 nM

B2: BrdU guide / OFF target (mixed)
RNA 1: UAUACAACCUACUACCUCAUU
RNA 2: GUUAUGUGUGUGAUUAUAUUUGUUCCAGUUCCUGUGUAAUAGACAUGGAA
modifications: BrdU at guide 1
[4]
  binding result: no binding

B3: G6 guide / A target (mixed)
RNA 1: UGCGGGUGCCAUAUGCAACUU
RNA 2: GGCAGCAUUCAACCAUAUGGCAACCGCAUACAGCCAAG
modifications: BrdU at guide 1
[7]
  Kd: 0.779 ± 0.071 nM

B4: A6 guide / A target (mixed)
RNA 1: UGCGGAUGCCAUAUGCAACUU
RNA 2: GGCAGCAUUCAACCAUAUGGCAACCGCAUACAGCCAAG
modifications: BrdU at guide 1
[8]
  binding signal: ~10 fold Kd vs I target

B5: C7 guide / A target (mixed)
RNA 1: UAGCGGCUGCCAUAUCCAACU
RNA 2: GGCAGCAUUCAACCAUAUGGCAACCGCAUACAGCCAAG
modifications: BrdU at guide 1
[9]
  binding signal: ~33 fold Kd vs I target

B6: A7 guide / C target (mixed)
RNA 1: UAGCGGAUGCCAUAUCCAACU
RNA 2: GGCAGCAUUCAACCAUAUGGCACCCGCAUACAGCCAAG
modifications: BrdU at guide 1
[10]
  binding signal: 47 fold Kd vs C7 guide/A target

B7: U6 guide / G target (mixed)
RNA 1: UGCGGUUGCCAUAUGCAACUU
RNA 2: GGCAGCAUUCAACCAUAUGGCAGCCGCAUACAGCCAAG
modifications: BrdU at guide 1
[8]
  binding signal: 21 fold Kd vs G6 guide/U target

B8: G6 guide / C target (mixed)
RNA 1: UGCGGGUGCCAUAUGCAACUU
RNA 2: GGCAGCAUUCAACCAUAUGGCACCCGCAUACAGCCAAG
modifications: BrdU at guide 1
[11]
  binding signal: 13 fold Kd vs C6 guide/G target

B9: A6 guide / mm1 (mixed)
RNA 1: UGCGGAUGCCAUAUGCAACUU
RNA 2: GGCAGCAUUCAACCAUAUGGCAUCCGCUUACAGCCAAG
modifications: BrdU at guide 1
[12]
  binding result: binds

B10: A6 guide / U target (complementary) (mixed)
RNA 1: UGCGGAUGCCAUAUGCAACUU
RNA 2: GGCAGCAUUCAACCAUAUGGCAUCCGCAUACAGCCAAG
modifications: BrdU at guide 1
[7]
  binding result: binds

B11: G6 guide / U target (mixed)
RNA 1: UGCGGGUGCCAUAUGCAACUU
RNA 2: GGCAGCAUUCAACCAUAUGGCAUCCGCAUACAGCCAAG
modifications: BrdU at guide 1
[13]
  binding result: binds

B12: U6 guide / U target (mixed)
RNA 1: UGCGGUUGCCAUAUGCAACUU
RNA 2: GGCAGCAUUCAACCAUAUGGCAUCCGCAUACAGCCAAG
modifications: BrdU at guide 1
[14]
  binding result: binds

B13: C6 guide / G target (mixed)
RNA 1: UGCGGCUGCCAUAUGCAACUU
RNA 2: GGCAGCAUUCAACCAUAUGGCAGCCGCAUACAGCCAAG
modifications: BrdU at guide 1
[15]
  binding result: binds

B14: C6 guide / U target (mixed)
RNA 1: UGCGGCUGCCAUAUGCAACUU
RNA 2: GGCAGCAUUCAACCAUAUGGCAUCCGCAUACAGCCAAG
modifications: BrdU at guide 1
[14]
  binding result: binds
